Data from publication PMC3050645.

Substrate: [O-][Cl+]O
Assay: Clark-type O2 electrode, initial rates
Format: biochemical, Dechloromonas aromatica (nom. nud.)
Details: pH 5.2, 4 °C, 100 mM citrate-phosphate

B1: Chlorite dismutase (Cld) (Dechloromonas aromatica RCB) (protein)
chain: MQPMQSMKIERGTILTQPGVFGVFTMFKLRPDWNKVPVAERKGAAEEVKKLIEKHKDNVLVDLYLTRGLETNSDFFFRINAYDLAKAQTFMREFRSTTVGKNADVFETLVGVTKPLNYISKDKSPGLNAGLSSATYSGPAPRYVIVIPVKKNAEWWNMSPEERLKEMEVHTTPTLAYLVNVKRKLYHSTGLDDTDFITYFETDDLTAFNNLMLSLAQVKENKFHVRWGSPTTLGTIHSPEDVIKALAD
  Km: 620 ± 70 µM
  kcat: 20000 ± 6000 s⁻¹
  kcat/Km: 3.2e+07 ± 4e+06 M⁻¹ s⁻¹
